Source: US20120245104A1, “NOVEL RETRO-INVERSO LEPTIN PEPTIDE ANTAGONISTS” (priority 2011, published 2012)
Where no end group is shown, it is not given here. [ ]: non-standard residue; d: D form.

B1: Retro-inverso LPA-2(89-72), D-L79 (peptide)
peptide: H-[dV][dH][dL][dL][dD][dR][dL][dN][dE][dL][dL][dN][dS][dI][dQ][dI][dV][dN]-NH2
SMILES: CC[C@@H](C)[C@@H](NC(=O)[C@@H](CO)NC(=O)[C@@H](CC(N)=O)NC(=O)[C@@H](CC(C)C)NC(=O)[C@@H](CC(C)C)NC(=O)[C@@H](CCC(=O)O)NC(=O)[C@@H](CC(N)=O)NC(=O)[C@@H](CC(C)C)NC(=O)[C@@H](CCCNC(=N)N)NC(=O)[C@@H](CC(=O)O)NC(=O)[C@@H](CC(C)C)NC(=O)[C@@H](CC(C)C)NC(=O)[C@@H](Cc1c[nH]cn1)NC(=O)[C@H](N)C(C)C)C(=O)N[C@H](CCC(N)=O)C(=O)N[C@@H](C(=O)N[C@@H](C(=O)N[C@H](CC(N)=O)C(N)=O)C(C)C)[C@H](C)CC
B2: Retro-inverso LPA-1(24-6), D-T10 (peptide)
peptide: H-[dI][dD][dN][dI][dR][dT][dV][dI][dT][dK][dI][dL][dT][dK][dT][dD][dD][dQ][dV]-NH2
SMILES: CC[C@@H](C)[C@@H](N)C(=O)N[C@H](CC(=O)O)C(=O)N[C@H](CC(N)=O)C(=O)N[C@@H](C(=O)N[C@H](CCCNC(=N)N)C(=O)N[C@@H](C(=O)N[C@@H](C(=O)N[C@@H](C(=O)N[C@@H](C(=O)N[C@H](CCCCN)C(=O)N[C@@H](C(=O)N[C@H](CC(C)C)C(=O)N[C@@H](C(=O)N[C@H](CCCCN)C(=O)N[C@@H](C(=O)N[C@H](CC(=O)O)C(=O)N[C@H](CC(=O)O)C(=O)N[C@H](CCC(N)=O)C(=O)N[C@@H](C(N)=O)C(C)C)[C@H](C)O)[C@H](C)O)[C@H](C)CC)[C@H](C)O)[C@H](C)CC)C(C)C)[C@H](C)O)[C@H](C)CC
B3: Retro-inverso LPA-2(89-72), D-I79 (peptide)
peptide: H-[dV][dH][dL][dL][dD][dR][dL][dN][dE][dL][dI][dN][dS][dI][dQ][dI][dV][dN]-NH2
SMILES: CC[C@@H](C)[C@@H](NC(=O)[C@@H](CC(C)C)NC(=O)[C@@H](CCC(=O)O)NC(=O)[C@@H](CC(N)=O)NC(=O)[C@@H](CC(C)C)NC(=O)[C@@H](CCCNC(=N)N)NC(=O)[C@@H](CC(=O)O)NC(=O)[C@@H](CC(C)C)NC(=O)[C@@H](CC(C)C)NC(=O)[C@@H](Cc1c[nH]cn1)NC(=O)[C@H](N)C(C)C)C(=O)N[C@H](CC(N)=O)C(=O)N[C@H](CO)C(=O)N[C@@H](C(=O)N[C@H](CCC(N)=O)C(=O)N[C@@H](C(=O)N[C@@H](C(=O)N[C@H](CC(N)=O)C(N)=O)C(C)C)[C@H](C)CC)[C@H](C)CC
B4: Retro-inverso LPA-1(24-6), D-L10 (peptide)
peptide: H-[dI][dD][dN][dI][dR][dT][dV][dI][dT][dK][dI][dL][dT][dK][dL][dD][dD][dQ][dV]-NH2
SMILES: CC[C@@H](C)[C@@H](N)C(=O)N[C@H](CC(=O)O)C(=O)N[C@H](CC(N)=O)C(=O)N[C@@H](C(=O)N[C@H](CCCNC(=N)N)C(=O)N[C@@H](C(=O)N[C@@H](C(=O)N[C@@H](C(=O)N[C@@H](C(=O)N[C@H](CCCCN)C(=O)N[C@@H](C(=O)N[C@H](CC(C)C)C(=O)N[C@@H](C(=O)N[C@H](CCCCN)C(=O)N[C@H](CC(C)C)C(=O)N[C@H](CC(=O)O)C(=O)N[C@H](CC(=O)O)C(=O)N[C@H](CCC(N)=O)C(=O)N[C@@H](C(N)=O)C(C)C)[C@H](C)O)[C@H](C)CC)[C@H](C)O)[C@H](C)CC)C(C)C)[C@H](C)O)[C@H](C)CC
B5: Retro-inverso LPA-2(89-72), D-V79 (peptide)
peptide: H-[dV][dH][dL][dL][dD][dR][dL][dN][dE][dL][dV][dN][dS][dI][dQ][dI][dV][dN]-NH2
SMILES: CC[C@@H](C)[C@@H](NC(=O)[C@@H](CO)NC(=O)[C@@H](CC(N)=O)NC(=O)[C@H](NC(=O)[C@@H](CC(C)C)NC(=O)[C@@H](CCC(=O)O)NC(=O)[C@@H](CC(N)=O)NC(=O)[C@@H](CC(C)C)NC(=O)[C@@H](CCCNC(=N)N)NC(=O)[C@@H](CC(=O)O)NC(=O)[C@@H](CC(C)C)NC(=O)[C@@H](CC(C)C)NC(=O)[C@@H](Cc1c[nH]cn1)NC(=O)[C@H](N)C(C)C)C(C)C)C(=O)N[C@H](CCC(N)=O)C(=O)N[C@@H](C(=O)N[C@@H](C(=O)N[C@H](CC(N)=O)C(N)=O)C(C)C)[C@H](C)CC
B6: Retro-inverso LPA-2(89-72), D-D79 (peptide)
peptide: H-[dV][dH][dL][dL][dD][dR][dL][dN][dE][dL][dD][dN][dS][dI][dQ][dI][dV][dN]-NH2
SMILES: CC[C@@H](C)[C@@H](NC(=O)[C@@H](CO)NC(=O)[C@@H](CC(N)=O)NC(=O)[C@@H](CC(=O)O)NC(=O)[C@@H](CC(C)C)NC(=O)[C@@H](CCC(=O)O)NC(=O)[C@@H](CC(N)=O)NC(=O)[C@@H](CC(C)C)NC(=O)[C@@H](CCCNC(=N)N)NC(=O)[C@@H](CC(=O)O)NC(=O)[C@@H](CC(C)C)NC(=O)[C@@H](CC(C)C)NC(=O)[C@@H](Cc1c[nH]cn1)NC(=O)[C@H](N)C(C)C)C(=O)N[C@H](CCC(N)=O)C(=O)N[C@@H](C(=O)N[C@@H](C(=O)N[C@H](CC(N)=O)C(N)=O)C(C)C)[C@H](C)CC
B7: Retro-inverso LPA-1(24-6), D-V10 (peptide)
peptide: H-[dI][dD][dN][dI][dR][dT][dV][dI][dT][dK][dI][dL][dT][dK][dV][dD][dD][dQ][dV]-NH2
SMILES: CC[C@@H](C)[C@@H](N)C(=O)N[C@H](CC(=O)O)C(=O)N[C@H](CC(N)=O)C(=O)N[C@@H](C(=O)N[C@H](CCCNC(=N)N)C(=O)N[C@@H](C(=O)N[C@@H](C(=O)N[C@@H](C(=O)N[C@@H](C(=O)N[C@H](CCCCN)C(=O)N[C@@H](C(=O)N[C@H](CC(C)C)C(=O)N[C@@H](C(=O)N[C@H](CCCCN)C(=O)N[C@@H](C(=O)N[C@H](CC(=O)O)C(=O)N[C@H](CC(=O)O)C(=O)N[C@H](CCC(N)=O)C(=O)N[C@@H](C(N)=O)C(C)C)C(C)C)[C@H](C)O)[C@H](C)CC)[C@H](C)O)[C@H](C)CC)C(C)C)[C@H](C)O)[C@H](C)CC
B8: Retro-inverso LPA-1(24-6), D-I10 (peptide)
peptide: H-[dI][dD][dN][dI][dR][dT][dV][dI][dT][dK][dI][dL][dT][dK][dI][dD][dD][dQ][dV]-NH2
SMILES: CC[C@@H](C)[C@@H](N)C(=O)N[C@H](CC(=O)O)C(=O)N[C@H](CC(N)=O)C(=O)N[C@@H](C(=O)N[C@H](CCCNC(=N)N)C(=O)N[C@@H](C(=O)N[C@@H](C(=O)N[C@@H](C(=O)N[C@@H](C(=O)N[C@H](CCCCN)C(=O)N[C@@H](C(=O)N[C@H](CC(C)C)C(=O)N[C@@H](C(=O)N[C@H](CCCCN)C(=O)N[C@@H](C(=O)N[C@H](CC(=O)O)C(=O)N[C@H](CC(=O)O)C(=O)N[C@H](CCC(N)=O)C(=O)N[C@@H](C(N)=O)C(C)C)[C@H](C)CC)[C@H](C)O)[C@H](C)CC)[C@H](C)O)[C@H](C)CC)C(C)C)[C@H](C)O)[C@H](C)CC

molecular target: T1, leptin receptor (ObR) (UniProt P48357 22-1165, limits assumed); assay: cell-based or functional assay
T1 sequence (looked up): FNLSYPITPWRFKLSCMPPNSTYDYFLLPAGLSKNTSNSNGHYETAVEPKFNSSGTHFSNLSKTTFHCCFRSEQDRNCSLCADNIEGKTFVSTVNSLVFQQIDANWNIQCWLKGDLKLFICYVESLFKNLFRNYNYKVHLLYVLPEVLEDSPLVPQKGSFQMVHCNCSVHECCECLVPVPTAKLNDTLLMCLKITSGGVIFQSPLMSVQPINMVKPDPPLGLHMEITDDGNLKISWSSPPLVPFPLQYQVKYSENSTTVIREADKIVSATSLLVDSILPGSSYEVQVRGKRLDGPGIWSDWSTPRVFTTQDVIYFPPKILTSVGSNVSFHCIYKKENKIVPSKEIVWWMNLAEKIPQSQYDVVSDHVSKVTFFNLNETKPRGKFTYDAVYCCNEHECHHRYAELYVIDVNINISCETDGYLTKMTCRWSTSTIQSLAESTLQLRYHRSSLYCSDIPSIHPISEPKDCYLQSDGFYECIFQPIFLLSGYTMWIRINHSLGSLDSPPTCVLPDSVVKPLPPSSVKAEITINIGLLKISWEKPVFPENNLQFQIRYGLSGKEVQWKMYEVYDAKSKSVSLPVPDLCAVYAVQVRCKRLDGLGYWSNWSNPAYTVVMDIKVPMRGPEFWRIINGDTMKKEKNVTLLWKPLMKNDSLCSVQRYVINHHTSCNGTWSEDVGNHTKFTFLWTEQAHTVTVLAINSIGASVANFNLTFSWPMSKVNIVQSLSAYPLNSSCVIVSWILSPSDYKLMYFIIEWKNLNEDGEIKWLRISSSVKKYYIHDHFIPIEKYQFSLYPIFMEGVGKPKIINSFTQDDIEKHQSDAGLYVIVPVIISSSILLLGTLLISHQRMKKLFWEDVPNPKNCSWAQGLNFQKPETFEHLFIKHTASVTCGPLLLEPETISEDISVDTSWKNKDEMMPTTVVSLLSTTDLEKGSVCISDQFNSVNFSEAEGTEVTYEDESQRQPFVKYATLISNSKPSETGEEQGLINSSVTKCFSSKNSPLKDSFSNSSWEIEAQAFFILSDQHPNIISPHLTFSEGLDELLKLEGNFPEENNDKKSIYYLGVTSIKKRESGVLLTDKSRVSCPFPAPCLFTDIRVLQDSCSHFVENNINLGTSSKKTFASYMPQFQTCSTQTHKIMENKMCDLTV

Row | IC50, inhibition of leptin-induced growth of MCF-7 cells [nM] | Binder
1 | 18.7 | B1
2 | 16.9 | B2
3 | 9.7 | B3
4 | 11.8 | B4
5 | 13.6 | B5
6 | 19.4 | B6
7 | 17.4 | B7
8 | 17.6 | B8

molecular target: T1, leptin receptor (ObR); assay: cell-based or functional assay; remark: another data set of the same source

Row | IC50 (half maximal inhibitory concentration), inhibition of leptin-induced cell growth [nM] | Binder
9 | 15.6 | NVIQISNVLENLRDLLHV-NH2 [Truncated LPA-2 (72-89), D79 Val substitution]
10 | 20.7 | VQDDVKTLIKTIVTRINDI-NH2 [Truncated LPA-1 (6-24), T10 Val substitution]
11 | 88 | VQDDAKTLIKTIVTRINDI-NH2 [Truncated LPA-1 (6-24), T10 Ala substitution]
